According to patent US20170121416A1 (AbbVie / Abbott, published 2017):

Tests used:
[1] = target: T1, human CD324-His recombinant protein (Sino Biological, Inc.) (human, UniProt P12830 155-709); experiment: SPR (Biacore), similar experiments as for murine SC10.17; humanized antibody
T1 construct: bought soluble protein; The antigen of the Biacore experiment is only called human CD324 antigen; also called hCD324-His; human CD324 antigen; not shown: His tag
T1 sequence: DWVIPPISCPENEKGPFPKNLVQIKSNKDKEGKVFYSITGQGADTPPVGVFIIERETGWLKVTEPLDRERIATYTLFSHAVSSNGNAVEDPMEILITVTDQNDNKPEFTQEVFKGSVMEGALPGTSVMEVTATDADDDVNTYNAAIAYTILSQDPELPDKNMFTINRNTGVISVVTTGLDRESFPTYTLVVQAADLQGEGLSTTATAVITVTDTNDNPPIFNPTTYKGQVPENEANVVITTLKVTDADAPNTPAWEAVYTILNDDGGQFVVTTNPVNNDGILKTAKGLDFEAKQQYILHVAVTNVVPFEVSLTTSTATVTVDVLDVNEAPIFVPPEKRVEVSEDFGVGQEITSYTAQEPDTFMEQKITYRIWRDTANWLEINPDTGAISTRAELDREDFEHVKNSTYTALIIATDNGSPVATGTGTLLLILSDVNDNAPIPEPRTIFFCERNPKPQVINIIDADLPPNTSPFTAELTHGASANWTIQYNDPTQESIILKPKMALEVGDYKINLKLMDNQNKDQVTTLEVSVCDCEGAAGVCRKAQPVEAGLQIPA

[2] = target: T2, Nectin-4 on cells (MCF-7, SKBR3) (UniProt Q96NY8 32-510, limits assumed); experiment: cell-based or functional assay
T2 sequence (looked up): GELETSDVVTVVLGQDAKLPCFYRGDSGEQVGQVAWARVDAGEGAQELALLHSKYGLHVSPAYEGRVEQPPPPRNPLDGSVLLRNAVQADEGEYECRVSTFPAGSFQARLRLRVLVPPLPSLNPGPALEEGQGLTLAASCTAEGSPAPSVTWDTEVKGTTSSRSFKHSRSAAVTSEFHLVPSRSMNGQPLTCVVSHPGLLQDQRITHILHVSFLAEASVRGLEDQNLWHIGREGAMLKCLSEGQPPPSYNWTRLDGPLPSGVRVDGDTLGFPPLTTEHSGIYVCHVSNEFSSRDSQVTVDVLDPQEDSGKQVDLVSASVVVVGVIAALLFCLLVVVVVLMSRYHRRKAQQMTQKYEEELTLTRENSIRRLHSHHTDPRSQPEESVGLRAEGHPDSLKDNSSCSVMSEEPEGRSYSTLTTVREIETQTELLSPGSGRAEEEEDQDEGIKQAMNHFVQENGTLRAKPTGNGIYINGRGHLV

[3] = target: T3, human CD324 on cells (MCF7, BR22, NTX tumor cells, 293-hCD324) (human, UniProt P12830 155-882); experiment: cell-based or functional assay
T3 sequence: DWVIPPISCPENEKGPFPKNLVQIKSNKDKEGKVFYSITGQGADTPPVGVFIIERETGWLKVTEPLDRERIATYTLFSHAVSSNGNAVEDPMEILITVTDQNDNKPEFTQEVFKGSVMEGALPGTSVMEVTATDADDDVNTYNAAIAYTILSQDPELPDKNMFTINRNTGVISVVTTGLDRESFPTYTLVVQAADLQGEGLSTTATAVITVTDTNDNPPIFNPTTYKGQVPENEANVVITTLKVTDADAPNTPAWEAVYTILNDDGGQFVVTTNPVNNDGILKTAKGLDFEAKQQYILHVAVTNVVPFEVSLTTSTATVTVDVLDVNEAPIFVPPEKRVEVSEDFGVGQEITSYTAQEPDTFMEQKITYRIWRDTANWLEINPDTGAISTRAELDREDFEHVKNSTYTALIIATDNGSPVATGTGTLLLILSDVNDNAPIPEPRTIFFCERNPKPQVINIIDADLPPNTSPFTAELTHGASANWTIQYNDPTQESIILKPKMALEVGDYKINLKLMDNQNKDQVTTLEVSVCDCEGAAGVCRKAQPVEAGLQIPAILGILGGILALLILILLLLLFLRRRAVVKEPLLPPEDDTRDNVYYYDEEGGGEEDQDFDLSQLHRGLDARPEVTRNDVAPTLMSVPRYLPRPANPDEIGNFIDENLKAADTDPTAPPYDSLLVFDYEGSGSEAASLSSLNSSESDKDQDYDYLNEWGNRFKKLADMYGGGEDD

[4] = target: T4, Nectin-4 protein (R&D Systems) (UniProt Q96NY8 32-349); experiment: bridging ELISA: Nectin-4 coated, detection with biotinylated CD324 W2A and streptavidin-HRP
T4 construct: bought; coated on the plate of the bridging ELISA
T4 sequence (looked up): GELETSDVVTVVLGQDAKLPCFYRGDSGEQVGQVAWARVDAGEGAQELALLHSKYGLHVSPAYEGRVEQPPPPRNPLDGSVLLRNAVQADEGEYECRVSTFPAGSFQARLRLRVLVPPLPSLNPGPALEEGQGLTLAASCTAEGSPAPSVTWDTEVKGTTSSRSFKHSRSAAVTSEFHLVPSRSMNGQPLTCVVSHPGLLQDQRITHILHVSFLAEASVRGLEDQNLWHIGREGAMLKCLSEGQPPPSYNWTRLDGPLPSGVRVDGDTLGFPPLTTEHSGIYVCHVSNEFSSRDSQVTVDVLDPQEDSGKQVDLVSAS

[5] = target: T3, human CD324 on cells (MCF7, BR22, NTX …); experiment: cell-based or functional assay; remark: listed apart in the source
[6] = target: T3, human CD324 on cells (MCF7, BR22, NTX …); experiment: cell-based or functional assay; remark: listed apart in the source

B1: hSC10.17 (antibody, V domains shown)
VH: EVQLVESGGGLVQPGGSLRLSCAASGFTFSSYGMHWVRQAPGKGLEWVAYITTRSSTIYYADSVKGRFTISRDNAKNSLYLQMNSLRAEDTAVYYCTREPLTGYYAMDYWGQGTSVTVSS
VL: DVVMTQSPLSLPVTLGQPASISCRSSQSIVHSDGNTYLEWYQQRPGQSPRRLIYKVSNRFSGVPDRFSGSGSGTDFTLKISRVEAEDVGVYYCFQGSHAPWTFGGGTKVEIK
notes: humanized (CDR-grafted) SC10.17; also called humanized SC10.17 mAb; hSC10.17 IgG
[1]
  Kd: 3800 pM
[2]
  IC50 on SKBR3 (pM), in vitro killing with anti-human IgG Fab-saporin: > 1000 pM
[3]
  IC50 on 293-hCD324 (pM), in vitro killing with anti-human IgG Fab-saporin: 0.27 pM
  IC50 on MCF-7 (pM), in vitro killing with anti-human IgG Fab-saporin: 3.1 pM
[4]
  binding result: no binding
[5]
  EC50 (MCF7, Fab-saporin killing): 4.44 pM
[6]
  EC50 of killing of MCF7 cells, anti-human Fab-saporin assay: 4.4 pM
